± gives the standard deviation of the averaged measurements.
test system: Saccharomyces cerevisiae; experiment: protein stability index of tFT-peptide fusion (C-terminal peptide) (PSI (0-1 scale)); higher = more stable (slower turnover); settings: genetic background: wild type; temperature: 30 C
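Also: PSI is a weighted mean of sequencing reads over stability bins, variants kept only with over 10 reads, mCherry proximal and sfGFP distal, peptide attached via GGGS linker.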

Sequence | protein stability index
PLHSLPSRTPPS | 0.7088 ± 0.006
PLHSTPRPPAPG | 0.706 ± 0.098
PLIDRKIKKAIQ | 0.705 ± 0.069
PLISYIEGGPTS | 0.674 ± 0.02
PLLAQSALFVIA | 0.5904 ± 0.0055
PLLHPTGFMGFP | 0.74 ± 0.028
PLLLLLPPPPSP | 0.674 ± 0.033
PLLLPPLPRTPF | 0.622 ± 0.0066
PLLPLSFRIPPF | 0.702 ± 0.014
PLLPPALCPFPP | 0.685 ± 0.029
PLLPPPGALFLL | 0.718 ± 0.057
PLLPSFPPPPAP | 0.51 ± 0.014
PLLPSGIPLFLS | 0.574 ± 0.016
PLLRLVPVPSVI | 0.5537 ± 0.0025
PLLSAFPPRPFP | 0.682 ± 0.12
PLLSSPAHPLPP | 0.687 ± 0.053
PLMKHSHSSLPF | 0.7016 ± 0.0043
PLPEQIEATTAS | 0.6921 ± 0.00086
PLPFPPPLPSHR | 0.767 ± 0.11
PLPHPPRPLPPH | 0.717 ± 0.015
PLPLLSLPRFPL | 0.753 ± 0.1
PLPLPFGPPSLP | 0.753 ± 0.15
PLPLPLPQTLPP | 0.6958 ± 0.0067

Sequence | protein stability index
PLPLPPPFILPT | 0.646 ± 0.052
PLPPHAPPNSAP | 0.656 ± 0.079
PLPPIPPSTPST | 0.726 ± 0.017
PLPPLPPTAPPP | 0.686 ± 0.015
PLPPLSSPRPPP | 0.711 ± 0.071
PLPPPGPPRLSR | 0.723 ± 0.0075
PLPPPHSPPPSA | 0.677 ± 0.011
PLPPPPPLPFHL | 0.79 ± 0.095
PLPPPPPPPPPT | 0.681 ± 0.023
PLPPPPPPPSPS | 0.835 ± 0.11
PLPPPPRPPLRP | 0.6941 ± 0.0052
PLPPPSPSTPPP | 0.796 ± 0.065
PLPPPVFLLFPL | 0.667 ± 0.051
PLPPRPCCLPRP | 0.644 ± 0.098
PLPRAPSPPPPP | 0.694 ± 0.023
PLPRFLTLTLSQ | 0.652 ± 0.023
PLPRLPSSLSRP | 0.697 ± 0.023
PLPSARPPPLPS | 0.685 ± 0.011
PLPSLPPPPPPL | 0.661 ± 0.076
PLPSPDLPLTHH | 0.679 ± 0.025
PLPSPRLRFLVP | 0.653 ± 0.036
PLPSVPESPAPP | 0.693 ± 0.045
PLRAPPHPPPVP | 0.623 ± 0.048

Sequence | protein stability index
PLRPPCPLPPRT | 0.6031 ± 0.0056
PLRPQALDPFLY | 0.6835 ± 0.0028
PLRPSSPLPPPL | 0.71 ± 0.021
PLSNAPRPSQVA | 0.736 ± 0.056
PLSPPHRLTAAL | 0.756 ± 0.19
PLSPPPPPPPPL | 0.707 ± 0.018
PLSPSCCLRRPL | 0.777 ± 0.24
PLSPSLPNPCSL | 0.706 ± 0.0079
PLSPSPPPASLL | 0.702 ± 0.018
PLSPTSPLPSPA | 0.6779 ± 0.0039
PLSQLPAFSPVS | 0.687 ± 0.0095
PLSTPPPLLLTP | 0.719 ± 0.12
PLSYRRFTRLPR | 0.68 ± 0.066
PLTEELCFSAWG | 0.734 ± 0.031
PLTFSFPVRVCD | 0.537 ± 0.028
PLTPPPALILFP | 0.693 ± 0.022
PLTPSPRPPPPS | 0.615 ± 0.15
PLTVPLPSPRLI | 0.645 ± 0.1
PLVPRCFVPPVI | 0.657 ± 0.023
PLWCLPSLPPPF | 0.797 ± 0.031
PLWEYGCLFASS | 0.718 ± 0.03
PLWLPPTPMQII | 0.62 ± 0.013
PLYHPSESYNPA | 0.678 ± 0.016

Sequence | protein stability index
PLYSLVSPPYAT | 0.651 ± 0.019
PMLSDVPTHSIS | 0.719 ± 0.039
PMPPPHLLPSSS | 0.723 ± 0.024
PMSPCPTRSINA | 0.702 ± 0.031
PMVLLDTIQRHT | 0.721 ± 0.033
PNHGEYRNGLYV | 0.715 ± 0.11
PNLKKHFRADEP | 0.6832 ± 0.0036
PNLSPPTPLSAD | 0.649 ± 0.018
PPAAAPPSPPPL | 0.663 ± 0.0036
PPAAPPPQPHLT | 0.696 ± 0.032
PPAEPLRLHAHA | 0.709 ± 0.054
PPALRSPCPSHP | 0.747 ± 0.14
PPAPLAPPPAGC | 0.67 ± 0.038
PPAPLPQSAPTR | 0.645 ± 0.038
PPAPPLFVSSPG | 0.684 ± 0.048
PPAPPPRLPSPP | 0.713 ± 0.098
PPAPSPPPPPPP | 0.622 ± 0.055
PPAPYPPFPLEL | 0.821 ± 0.078
PPCLYPFPPPSR | 0.661 ± 0.017
PPCPPPPPVLPT | 0.66722 ± 0.00014
PPDAPPMPPPQH | 0.738 ± 0.083
PPDYPAPPPPPL | 0.695 ± 0.034
PPEPSYPPLPPR | 0.717 ± 0.011

Sequence | protein stability index
PPGPPPPPAPPL | 0.724 ± 0.062
PPGVTPLSLCAC | 0.534 ± 0.0088
PPHAPKPPPTAA | 0.588 ± 0.077
PPHLSPPPPPLL | 0.6987 ± 0.0054
PPHPFPPPPPPS | 0.665 ± 0.069
PPHPHNPRPSTP | 0.6548 ± 0.0046
PPHPPPLLPFSI | 0.764 ± 0.009
PPIFPSPPPPAD | 0.61 ± 0.011
PPILLAYITPPM | 0.656 ± 0.0076
PPIRLPSPLLPH | 0.7123 ± 0.0056
PPKPAQPPTPSP | 0.693 ± 0.075
PPLAPPTPHPLS | 0.716 ± 0.029
PPLEHPGIAGGR | 0.644 ± 0.1
PPLFPPLAPLHR | 0.72 ± 0.032
PPLFSSTNKNPR | 0.664 ± 0.0076
PPLLAPPTPLPQ | 0.674 ± 0.051
PPLLLRFLTIHL | 0.571 ± 0.027
PPLLPLLCPHSL | 0.738 ± 0.016
PPLLPTPRPPPP | 0.65 ± 0.037
PPLLRSPPPLSP | 0.675 ± 0.022
PPLNPHPPAPTP | 0.724 ± 0.032
PPLPAPPPPFPP | 0.59 ± 0.022
PPLPFARAPHCP | 0.732 ± 0.059

Sequence | protein stability index
PPLPHQPSHPIS | 0.672 ± 0.053
PPLPLPPPHPPP | 0.503 ± 0.047
PPLPPLPLPNPP | 0.676 ± 0.064
PPLPPLPSPLPL | 0.674 ± 0.014
PPLPPLRPIRSP | 0.702 ± 0.035
PPLPPPLLPSSS | 0.711 ± 0.12
PPLPPPLSLPPP | 0.657 ± 0.06
PPLPPPPPPFPP | 0.5534 ± 0.0012
PPLPPPSVPPPC | 0.716 ± 0.012
PPLPPSLPGSSL | 0.642 ± 0.053
PPLPPSPRLLPP | 0.635 ± 0.056
PPLPRPSLPPLP | 0.676 ± 0.054
PPLPSFILSPRA | 0.705 ± 0.027
PPLPSGLHPTLT | 0.6932 ± 0.0052
PPLPSTAPPSPL | 0.735 ± 0.0096
PPLPTPPPPPDP | 0.662 ± 0.052
PPLRFFPPVSSH | 0.667 ± 0.014
PPLRPPPLHPPR | 0.705 ± 0.036
PPLRPPPPPPPP | 0.668 ± 0.072
PPLRPRCSPAPR | 0.706 ± 0.01
PPLRQLTIPLTH | 0.723 ± 0.0088
PPLSPPPLPAAP | 0.724 ± 0.03
PPLSPPPSASSS | 0.738 ± 0.065

Sequence | protein stability index
PPLSSPPSLSPP | 0.703 ± 0.049
PPLTSSPPFSPP | 0.728 ± 0.09
PPLYPPPRDLPP | 0.5453 ± 0.0038
PPNPLHPPPSRP | 0.653 ± 0.044
PPNPPPNPPSRY | 0.738 ± 0.047
PPPALVPRPPPR | 0.679 ± 0.0084
PPPAPPCFAPFP | 0.673 ± 0.019
PPPAPPPLPTSP | 0.771 ± 0.095
PPPAPPPPHSLV | 0.717 ± 0.057
PPPDPPLHHNLP | 0.693 ± 0.036
PPPFPPPSFASR | 0.696 ± 0.057
PPPFPYRTALLP | 0.708 ± 0.016
PPPGAPAPPPSS | 0.692 ± 0.12
PPPGCRPSPPLP | 0.683 ± 0.069
PPPGLPPPLPPS | 0.767 ± 0.015
PPPGRRRLRGPT | 0.705 ± 0.04
PPPHPPPPASPP | 0.653 ± 0.034
PPPHPSPSRRSS | 0.681 ± 0.029
PPPHVPPPPSSL | 0.711 ± 0.023
PPPIYTPPPPPL | 0.697 ± 0.053
PPPKRTPTPQCP | 0.702 ± 0.078
PPPLAPPTSLRF | 0.715 ± 0.075

From the supplement of paper PMC10724198
